Reference: publication PMC7318843 (Neuron, 2020)

Molecular target: biotin-labeled Aβ40 (UniProt P05067 672-711, biotin (position not given))
Assay: pull-down

B1: MDK protein (Midkine), human recombinant (natural protein, UniProt P21741 21-143, looked up)
chain: VAKKKDKVKKGGPGSECAEWAWGPCTPSSKDCGVGFREGTCGAQTQRIRCRVPCNWKKEFGADCKYKFENWGACDGGTGTKVRQGTLKKARYNAQCQETIRVTKPCTPKTKAKAKAKKGKGKD
  binding result: binds
